Tested on: peptide library, one residue held at a place counted from the S/T acceptor
Test: relative phosphorylation of the sub-library (ratio to the mean residue at this position); higher = residue favoured
Conditions: human
How it was run: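 Purified recombinant kinases were reacted in 384-well plates with biotinylated degenerate peptide sub-libraries, each having one residue fixed at one position around a central Ser/Thr. The reaction mix contained 50 μM peptide plus 50 μM ATP spiked with γ-32P-ATP and ran for 90 min under kinase-specific conditions. Relative sub-library phosphorylation, taken from densitometry of phosphorimaged streptavidin membrane spots, is a ratio to the mean residue at that position.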

Sequence of RIPK4, construct: aa1-300 (P57078 1-300, looked up): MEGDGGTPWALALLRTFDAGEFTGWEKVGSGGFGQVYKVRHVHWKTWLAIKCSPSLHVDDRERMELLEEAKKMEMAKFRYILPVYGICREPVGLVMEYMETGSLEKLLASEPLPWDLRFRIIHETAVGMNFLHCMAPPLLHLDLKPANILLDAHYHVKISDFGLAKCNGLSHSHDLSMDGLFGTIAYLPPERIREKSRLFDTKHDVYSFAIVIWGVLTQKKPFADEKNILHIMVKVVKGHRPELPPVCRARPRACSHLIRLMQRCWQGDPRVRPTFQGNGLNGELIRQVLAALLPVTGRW
Sequence of NLK, construct: Full length (Q9UBE8 whole entry, looked up): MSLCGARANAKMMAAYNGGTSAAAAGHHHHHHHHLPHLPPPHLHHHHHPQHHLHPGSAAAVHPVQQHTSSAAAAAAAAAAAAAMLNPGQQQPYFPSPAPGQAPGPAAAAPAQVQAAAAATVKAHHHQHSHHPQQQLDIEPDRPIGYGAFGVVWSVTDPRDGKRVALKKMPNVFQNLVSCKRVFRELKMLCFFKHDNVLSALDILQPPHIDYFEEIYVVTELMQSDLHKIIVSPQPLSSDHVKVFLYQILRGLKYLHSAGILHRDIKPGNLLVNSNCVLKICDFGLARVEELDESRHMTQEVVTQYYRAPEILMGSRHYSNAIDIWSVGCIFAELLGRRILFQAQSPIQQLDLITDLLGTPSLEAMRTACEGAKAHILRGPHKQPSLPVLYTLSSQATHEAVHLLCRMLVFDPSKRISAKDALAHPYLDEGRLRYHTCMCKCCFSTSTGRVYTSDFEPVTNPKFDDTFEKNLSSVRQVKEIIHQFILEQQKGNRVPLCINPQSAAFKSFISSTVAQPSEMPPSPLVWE
Sequence of LATS1, construct: aa589-end (O95835 589-1130, looked up): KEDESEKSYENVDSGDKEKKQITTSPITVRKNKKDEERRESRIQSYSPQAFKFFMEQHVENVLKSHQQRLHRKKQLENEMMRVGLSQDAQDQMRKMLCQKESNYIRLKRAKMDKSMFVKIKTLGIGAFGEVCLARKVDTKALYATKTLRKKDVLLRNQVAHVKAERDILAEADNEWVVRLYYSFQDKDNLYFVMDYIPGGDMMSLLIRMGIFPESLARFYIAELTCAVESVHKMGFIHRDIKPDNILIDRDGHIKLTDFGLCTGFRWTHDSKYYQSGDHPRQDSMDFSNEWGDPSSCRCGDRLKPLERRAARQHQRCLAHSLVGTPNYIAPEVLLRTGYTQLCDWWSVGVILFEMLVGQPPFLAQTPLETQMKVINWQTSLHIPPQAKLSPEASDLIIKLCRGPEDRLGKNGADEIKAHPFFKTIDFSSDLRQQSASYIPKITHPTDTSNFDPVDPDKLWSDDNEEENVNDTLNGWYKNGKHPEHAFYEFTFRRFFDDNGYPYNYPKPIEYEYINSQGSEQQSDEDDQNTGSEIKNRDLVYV

RIPK4, construct: aa1-300 (from UniProt P57078)
relative phosphorylation
Conditions | at +1 | at +2 | at +3 | at +4 | at -1 | at -2 | at -3 | at -4 | at -5
A fixed | 0.786 | 0.77 | 0.723 | 0.883 | 0.722 | 0.944 | 1.01 | 0.988 | 1.04
D fixed | 0.444 | 0.547 | 0.572 | 0.75 | 1.76 | 1.53 | 1.02 | 1.45 | 1.43
E fixed | 0.458 | 0.509 | 0.485 | 0.618 | 0.809 | 1.36 | 0.853 | 0.96 | 0.926
F fixed | 1.86 | 1.04 | 1.37 | 1.16 | 0.6 | 0.863 | 0.994 | 0.822 | 1.04
G fixed | 1.04 | 0.738 | 0.909 | 0.918 | 0.585 | 1.33 | 0.969 | 1.07 | 0.944
H fixed | 0.776 | 1.18 | 0.859 | 1.07 | 1.48 | 1.37 | 1.14 | 1.04 | 1.07
I fixed | 1.77 | 0.843 | 1.78 | 1.05 | 0.841 | 0.635 | 0.848 | 0.861 | 0.876
K fixed | 0.691 | 1.66 | 0.792 | 1.25 | 1.63 | 0.64 | 0.919 | 0.9 | 1.09
L fixed | 1.25 | 0.978 | 1.5 | 1.01 | 0.858 | 0.628 | 0.941 | 0.819 | 0.926
M fixed | 1.71 | 1.11 | 1.04 | 0.831 | 0.815 | 0.789 | 0.996 | 0.91 | 0.909
N fixed | 0.665 | 0.943 | 0.725 | 0.726 | 1.52 | 1.24 | 0.837 | 1.26 | 0.941
P fixed | 0.376 | 0.62 | 0.706 | 1.32 | 0.461 | 0.502 | 1.11 | 0.844 | 0.922
Q fixed | 1.19 | 0.924 | 0.779 | 0.802 | 1.02 | 0.898 | 0.976 | 0.888 | 0.856
R fixed | 1.11 | 2.28 | 0.932 | 1.29 | 1.33 | 0.986 | 1.43 | 0.936 | 1.03
V fixed | 1.26 | 0.815 | 1.09 | 0.798 | 1.01 | 0.618 | 0.723 | 0.874 | 0.866
W fixed | 0.781 | 0.988 | 1.45 | 1.41 | 0.59 | 1.06 | 1.24 | 1.39 | 1.24
Y fixed | 0.836 | 1.07 | 1.3 | 1.13 | 0.963 | 1.6 | 0.998 | 0.977 | 0.898
pThr fixed | 0.839 | 0.707 | 0.778 | 0.887 | 1.03 | 1.04 | 1.07 | 1.17 | 1.23
pTyr fixed | 0.524 | 0.726 | 0.725 | 0.802 | 0.897 | 0.817 | 0.967 | 0.967 | 1.09

LATS1, construct: aa589-end (from UniProt O95835)
relative phosphorylation
Conditions | at +1 | at +2 | at +3 | at +4 | at -1 | at -2 | at -3 | at -4 | at -5
A fixed | 0.659 | 0.785 | 0.976 | 0.856 | 0.615 | 0.872 | 0.639 | 1.08 | 0.8
D fixed | 1.01 | 1.11 | 1.46 | 1.45 | 1.88 | 1.91 | 1.24 | 0.946 | 1.01
E fixed | 1.3 | 2.1 | 1.28 | 1.52 | 0.865 | 1.3 | 0.564 | 0.822 | 0.706
F fixed | 0.776 | 0.66 | 0.867 | 0.785 | 0.27 | 0.756 | 0.375 | 0.839 | 0.611
G fixed | 0.751 | 0.85 | 1.17 | 1.34 | 1.3 | 0.893 | 0.853 | 1.04 | 1.09
H fixed | 0.946 | 1.2 | 1.03 | 1.22 | 0.891 | 0.974 | 1.2 | 1.6 | 4.19
I fixed | 0.957 | 1.34 | 0.784 | 0.743 | 0.21 | 0.298 | 0.257 | 0.481 | 0.476
K fixed | 1.23 | 0.623 | 1.27 | 0.844 | 2.38 | 1.36 | 1.78 | 1.15 | 0.971
L fixed | 1.46 | 1.29 | 0.961 | 0.707 | 0.438 | 0.373 | 0.312 | 0.62 | 0.52
M fixed | 1.8 | 0.941 | 0.791 | 0.994 | 0.667 | 0.692 | 0.427 | 0.8 | 0.74
N fixed | 0.907 | 1.12 | 0.955 | 1.26 | 1.2 | 1.08 | 0.765 | 0.939 | 0.868
P fixed | 0.648 | 0.816 | 1.08 | 0.982 | 3.01 | 0.99 | 2.34 | 1.42 | 0.834
Q fixed | 0.91 | 0.846 | 0.941 | 0.924 | 1.02 | 1.41 | 0.705 | 1.02 | 0.718
R fixed | 0.683 | 1.21 | 0.645 | 0.755 | 0.915 | 1.79 | 3.7 | 1.19 | 1.15
V fixed | 0.797 | 0.771 | 0.902 | 0.647 | 0.294 | 0.359 | 0.326 | 0.61 | 0.613
W fixed | 1.26 | 0.585 | 1.06 | 0.907 | 0.436 | 0.969 | 0.708 | 1.5 | 0.842
Y fixed | 0.9 | 0.754 | 0.827 | 1.07 | 0.604 | 0.978 | 0.824 | 0.931 | 0.863
pThr fixed | 1.2 | 1.09 | 1.2 | 2.38 | 0.769 | 0.586 | 0.536 | 0.599 | 0.598
pTyr fixed | 0.854 | 0.716 | 0.789 | 1.15 | 0.411 | 0.431 | 0.542 | 0.578 | 0.613

NLK, construct: Full length (from UniProt Q9UBE8)
relative phosphorylation
Conditions | at +1 | at +2 | at +3 | at +4 | at -1 | at -2 | at -3 | at -4 | at -5
A fixed | 0.638 | 0.768 | 0.938 | 0.8 | 0.85 | 0.989 | 1.12 | 1.03 | 0.998
D fixed | 0.435 | 0.514 | 0.628 | 0.634 | 0.604 | 0.568 | 0.652 | 0.931 | 1.01
E fixed | 0.41 | 0.477 | 0.618 | 0.607 | 0.571 | 0.604 | 0.729 | 0.855 | 0.86
F fixed | 0.806 | 0.705 | 0.863 | 0.75 | 0.88 | 0.807 | 0.723 | 0.802 | 0.926
G fixed | 1.01 | 0.96 | 1.25 | 0.939 | 0.904 | 0.764 | 1.38 | 1.01 | 0.982
H fixed | 0.652 | 1.23 | 1.04 | 0.982 | 1.21 | 0.842 | 0.819 | 1.11 | 1.02
I fixed | 0.888 | 0.99 | 1.24 | 1.37 | 0.868 | 0.941 | 0.579 | 0.931 | 0.847
K fixed | 0.654 | 1.56 | 1.39 | 1.47 | 1.16 | 0.992 | 0.991 | 1.18 | 1.19
L fixed | 0.921 | 1.12 | 0.995 | 1 | 1.9 | 1.81 | 1.12 | 1.03 | 0.995
M fixed | 0.902 | 0.853 | 1.01 | 0.983 | 1.38 | 1.56 | 1.63 | 0.992 | 0.768
N fixed | 0.581 | 0.991 | 0.762 | 0.868 | 0.805 | 0.812 | 0.956 | 1.1 | 1.01
P fixed | 5.41 | 0.754 | 0.9 | 0.946 | 1.07 | 1.42 | 1.16 | 0.89 | 1.02
Q fixed | 0.629 | 0.904 | 0.883 | 0.948 | 0.953 | 1.03 | 0.941 | 1.02 | 1.06
R fixed | 0.798 | 2.21 | 1.66 | 1.39 | 1.35 | 1.41 | 1.9 | 1.32 | 1.3
V fixed | 0.777 | 1.09 | 0.989 | 1.16 | 0.995 | 0.861 | 0.864 | 0.85 | 0.831
W fixed | 0.753 | 0.859 | 0.824 | 1.16 | 0.638 | 0.807 | 0.752 | 1.07 | 1.07
Y fixed | 0.743 | 1.01 | 1.01 | 0.996 | 0.857 | 0.796 | 0.688 | 0.88 | 1.11
pThr fixed | 0.784 | 0.694 | 0.723 | 0.725 | 0.775 | 0.996 | 0.944 | 1.18 | 0.965
pTyr fixed | 0.717 | 0.523 | 0.796 | 0.631 | 0.774 | 0.772 | 0.734 | 0.661 | 0.949

Source: the supplement of paper PMC9876800
